T1: human Nectin-4 Mutant 2 (V90S/P92A/A93S/E95A/G96D) (Homo sapiens, UniProt Q96NY8, A93S/E95A/G96D/P92A/V90S)
T1 construct: expressed in transfected cells; host or cells: HEK293T
T1 sequence (Q96NY8 32-510 V90S/P92A/A93S/E95A/G96D): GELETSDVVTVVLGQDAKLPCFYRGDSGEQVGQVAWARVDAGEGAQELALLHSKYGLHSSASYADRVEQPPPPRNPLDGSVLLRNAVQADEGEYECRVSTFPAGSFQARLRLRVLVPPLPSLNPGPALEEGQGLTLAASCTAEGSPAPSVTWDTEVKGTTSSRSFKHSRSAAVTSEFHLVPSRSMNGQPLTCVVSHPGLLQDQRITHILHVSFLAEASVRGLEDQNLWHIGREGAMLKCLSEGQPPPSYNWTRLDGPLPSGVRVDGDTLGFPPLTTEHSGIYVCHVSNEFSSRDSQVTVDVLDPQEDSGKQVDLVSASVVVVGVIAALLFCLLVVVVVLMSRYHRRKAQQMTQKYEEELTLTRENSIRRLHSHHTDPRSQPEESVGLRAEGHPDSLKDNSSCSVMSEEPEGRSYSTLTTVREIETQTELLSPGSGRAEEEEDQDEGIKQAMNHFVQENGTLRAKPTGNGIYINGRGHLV

T2: human Nectin-4 Mutant 6 (H238A/I239T/H241Q) (Homo sapiens, UniProt Q96NY8, H238A/H241Q/I239T)
T2 construct: expressed in transfected cells; host or cells: HEK293T
T2 sequence (Q96NY8 32-510 H238A/I239T/H241Q): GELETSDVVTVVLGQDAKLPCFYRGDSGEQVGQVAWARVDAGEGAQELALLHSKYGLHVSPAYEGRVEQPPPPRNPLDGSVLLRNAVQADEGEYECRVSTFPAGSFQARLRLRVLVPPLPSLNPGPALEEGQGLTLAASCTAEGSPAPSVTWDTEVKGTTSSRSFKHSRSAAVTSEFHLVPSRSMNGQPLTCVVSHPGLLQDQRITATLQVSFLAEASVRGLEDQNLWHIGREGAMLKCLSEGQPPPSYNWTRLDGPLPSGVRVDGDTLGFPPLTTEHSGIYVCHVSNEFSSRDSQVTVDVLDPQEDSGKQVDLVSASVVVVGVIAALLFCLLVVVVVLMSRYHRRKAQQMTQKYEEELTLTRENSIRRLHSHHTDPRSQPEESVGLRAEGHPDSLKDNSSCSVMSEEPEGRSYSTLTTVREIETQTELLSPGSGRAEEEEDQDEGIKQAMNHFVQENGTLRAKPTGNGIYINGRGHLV

T3: human Nectin-4 Mutant 7bis (A72P/G73N/K197T/S199A) (Homo sapiens, UniProt Q96NY8, A72P/G73N/K197T/S199A)
T3 construct: expressed in transfected cells; host or cells: HEK293T
T3 sequence (Q96NY8 32-510 A72P/G73N/K197T/S199A): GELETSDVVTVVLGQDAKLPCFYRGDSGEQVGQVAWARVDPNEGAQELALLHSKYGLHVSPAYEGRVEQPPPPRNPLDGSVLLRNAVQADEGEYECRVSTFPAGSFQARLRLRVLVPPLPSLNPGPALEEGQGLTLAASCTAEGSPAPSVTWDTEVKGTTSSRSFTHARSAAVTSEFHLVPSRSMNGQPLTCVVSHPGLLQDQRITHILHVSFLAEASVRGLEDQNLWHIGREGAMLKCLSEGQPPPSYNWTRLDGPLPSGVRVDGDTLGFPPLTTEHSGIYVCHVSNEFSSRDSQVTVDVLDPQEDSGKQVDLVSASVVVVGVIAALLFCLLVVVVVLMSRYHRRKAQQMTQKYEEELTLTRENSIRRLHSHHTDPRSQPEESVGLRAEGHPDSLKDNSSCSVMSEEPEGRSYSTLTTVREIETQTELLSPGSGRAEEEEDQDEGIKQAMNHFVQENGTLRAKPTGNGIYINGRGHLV

T4: human Nectin-4 Mutant 1 (S58P/G59D/Q61A/N106D/P107A) (Homo sapiens, UniProt Q96NY8, G59D/N106D/P107A/Q61A/S58P)
T4 construct: expressed in transfected cells; host or cells: HEK293T
T4 sequence (Q96NY8 32-510 S58P/G59D/Q61A/N106D/P107A): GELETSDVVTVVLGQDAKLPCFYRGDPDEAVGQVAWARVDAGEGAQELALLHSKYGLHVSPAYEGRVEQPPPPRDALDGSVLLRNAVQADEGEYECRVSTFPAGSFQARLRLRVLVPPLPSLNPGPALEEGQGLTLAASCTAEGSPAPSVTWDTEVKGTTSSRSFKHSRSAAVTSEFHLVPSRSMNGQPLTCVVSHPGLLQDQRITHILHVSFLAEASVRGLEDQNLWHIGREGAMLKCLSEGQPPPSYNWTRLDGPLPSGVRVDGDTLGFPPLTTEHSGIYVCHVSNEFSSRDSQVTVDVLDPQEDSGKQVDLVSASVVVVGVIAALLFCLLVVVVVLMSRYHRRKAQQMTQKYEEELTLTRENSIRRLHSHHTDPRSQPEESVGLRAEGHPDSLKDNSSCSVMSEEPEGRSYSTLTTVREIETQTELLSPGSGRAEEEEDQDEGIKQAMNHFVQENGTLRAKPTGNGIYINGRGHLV

B1: 5E7 (antibody, V domains shown)
VH: QVQLQQPGAELVKPGASVKLSCKASGYIFTSYWMHWVKQRPGQGLEWIGEIDPSDSYTNYNQKFKGKATLTLDKSSSTTYMQLSSLTSEDSAVYYCVRGYGNYGDYWGQGTTLTVSSASTKGP
VL: DVVMTQAAFSNPVTLGTSASISCRSSKSLLHSNGITYLYWYLQKPGQSPQLLIYQMSNLASGVPDRFSSSGSGTDFTLRISRVEAEDVGVYYCAQNLELPWTFGGGTKLEIKRTVAAP
B2: N41 (antibody, V domains shown)
VH: QVQLKQSGPGLVQPSQSLSITCTVSGFSLTNYGVHWVRQSPGKGLEWLGVIWSGGSTDYNAAFISRLSISKDTSKSQVFFKMNSLQADDTAIYYCARELIHAMDNWGQGTSVTVSS
VL: DIQMTQSPASLSVSVGETVTITCRASENIYSNLAWYQQKQGNSPQLLVFAATNLADGVPSRFSGSGSGTQYSLKINSLQSEDFGTYYCQHFWGTPTFGGGTKLEIK

Columns and labels:
Test in all cases: Epitope mapping using Nectin-4 point mutants
Format in all cases: binding
[1] = target: T1, human Nectin-4 Mutant 2 (V90S/P92A/A93S/E95A/G96D)
Excerpt: (§1) Combined with the published structures of the Nectin-4 domains, Nectin-4 mutations at surface exposed amino acids residues were designed. Nectin-4 domain structure was modelled based on Protein Data Bank reference: 4FRW (domains V et C1). Human Nectin-4 used was NCBI Reference Sequence: NP_112178.2, mouse Nectin-4 used was NCBI Reference Sequence: AAL79833.1, cynomolgus Nectin-4 used was NCBI Reference Sequence: XP_005541277.1, rat Nectin-4 used was NCBI Reference Sequence: NP_001102546.1. The cells expressing the Nectin-4 mutants are then be used for testing anti-Nectin-4 antibodies for loss of binding to different Nectin-4 mutants to identify antibodies that bind to the same site on Nectin-4. […] FIGS. 8A and 8B show different view of a molecular model of the human Nectin-4 protein, indicating the position of substituted residues in mutants 1, 2, 3, 4, 5, 6, 7, 8 and 9.
(§2) Nectin-4 mutants were generated by PCR. The sequences amplified were run on agarose gel and purified using the Macherey Nagel PCR Clean-Up Gel Extraction kit. The purified PCR products generated for each mutant were then ligated into an expression vector, with the ClonTech InFusion system. The vectors containing the mutated sequences were prepared as Miniprep and sequenced. After sequencing, the vectors containing the mutated sequences were prepared as Midiprep using the Promega PureYield™ Plasmid Midiprep System. HEK293T cells were grown in DMEM medium (Invitrogen), transfected with vectors using Invitrogen's Lipofectamine 2000 and incubated at 37° C. in a CO2 incubator for 48 hours prior to testing for transgene expression. The targeted amino acid mutations are shown in Table 13 below, listing the residue present in wild-type Nectin-4/position of residue/residue present in mutant Nectin-4, with position reference being to the Nectin-4 protein with leader peptide shown in SEQ ID NO: 1.
(§3) (+) means that antibodies-Nectin-4 association occurs.

[2] = target: T2, human Nectin-4 Mutant 6 (H238A/I239T/H241Q)
Excerpt: as §1, §2, §3

[3] = target: T3, human Nectin-4 Mutant 7bis (A72P/G73N/K197T/S199A)
Excerpt: as §1, §2, §3

[4] = target: T4, human Nectin-4 Mutant 1 (S58P/G59D/Q61A/N106D/P107A)
Excerpt: as §1, §2, §3

| Molecule | association with Mutant 2 [1] | association with Mutant 6 [2] | association with Mutant 7bis [3] | association with Mutant 1 [4] |
| --- | --- | --- | --- | --- |
| B1 | + | + | − | + |
| B2 | + | + | + | − |

Source: US20250297004A1, “NECTIN-4 BINDING AGENTS” (INNATE PHARMA, priority 2022, published 2025)
